Test results taken from patent US7618787B2, “Method of screening compound capable of accelerating or inhibiting apoptosis, apoptosis accelarator and apoptosis inhibitor” (Hisamitsu Pharmaceutical Co., Inc., priority 2004, dated 2009).

System: p53
Experiment: Luciferase reporter assay, p53-dependent transcriptional activation in H1299 cells
Type: cell-based, human
Details: H1299, coexpression with p53 (FIG. 22)
Method: H1299 cells deficient in p53 were seeded at a density of 5×10^4 cells/well onto a 12-well tissue culture dish and transiently transfected with 100 ng of luciferase reporter construct (which carried a p53/p73-responsive element derived from a p21^WAF1, Bax, or MDM2 promoter), 10 ng of pRL-TK Renilla luciferase cDNA, and 25 ng of given expression plasmid (p53, HA-p73α, or HA-p73β) together with or without varying amounts of IKK-α or FLAG-IKK-β expression plasmids. The total amount of DNA per transfection was kept constant (510 ng) with a pcDNA3 empty plasmid. After 48 hours from the transfection, the cells were washed twice with ice-cold PBS and suspended in passive lysis buffer (Promega). Both firefly and Renilla luciferase activities were assayed by use of dual-luciferase reporter assay system (Promega) according to the instruction. […] intensity was measured with TD-20 luminometer (Turner Design). The firefly luciferase signal was normalized based on the Renilla luciferase signal. Results obtained from at least 3 transfections were indicated by mean value±standard deviation.
To explore the functional implication of interaction between IKK-α and p73, the effect of IKK-α on p73-mediated transcriptional activation was first examined. […]

B1: IKK-α: IKK-α protein, amino acid sequence SEQ ID NO: 24, expressed from plasmid; apoptosis enhancer (protein, listed as Homo sapiens)
chain: MERPPGLRPGAGGPWEMRERLGTGGFGNVCLYQHRELDLKIAIKSCRLELSTKNRERWCHEIQIMKKLNHANVVKACDVPEELNILIHDVPLLAMEYCSGGDLRKLLNKPENCCGLKESQILSLLSDIGSGIRYLHENKIIHRDLKPENIVLQDVGGKIIHKIIDLGYAKDVDQGSLCTSFVGTLQYLAPELFENKPYTATVDYWSFGTMVFECIAGYRPFLHHLQPFTWHEKIKKKDPKCIFACEEMSGEVRFSSHLPQPNSLCSLIVEPMENWLQLMLNWDPQQRGGPVDLTLKQPRCFVLMDHILNLKIVHILNMTSAKIISFLLPPDESLHSLQSRIERETGINTGSQELLSETGISLDPRKPASQCVLDGVRGCDSYMVYLFDKSKTVYEGPFASRSLSDCVNYIVQDSKIQLPIIQLRKVWAEAVHYVSGLKEDYSRLFQGQRAAMLSLLRYNANLTKMKNTLISASQQLKAKLEFFHKSIQLDLERYSEQMTYGISSEKMLKAWKEMEEKAIHYAEVGVIGYLEDQIMSLHAEIMELQKSPYGRRQGDLMESLEQRAIDLYKQLKHRPSDHSYSDSTEMVKIIVHTVQSQDRVLKELFGHLSKLLGCKQKIIDLLPKVEVALSNIKEADNTVMFMQGKRQKEIWHLLKIACTQSSARSLVGSSLEGAVTPQTSAWLPPTSAEHDHSLSCVVTPQDGETSAQMIEENLNCLGHLSTIIHEANEEQGNSMMNLDWSWLTE
p53-responsive reporter gene activity: not induced
